This is an account of results in patent publication US20220403043A1 (YEDA RESEARCH AND DEVELOPMENT, published 2022).

The target in experiment [1] is T1, recombinant human DEC-205 (Sino Biological), extracellular domain (human, UniProt O60449 28-1666).
T1 construct: extracellular domain; Bought protein
Nature of the experiment: ELISA titration on coated recombinant human DEC-205 (FIG. 4B). As to the method:
(§1) All sequential steps were performed at room temperature. After being washed, the plates were blocked for 1 hr with 1×PBS with 2% Bovine serum Albumin and were subsequently incubated for 1 hr with serially diluted IgGs (1:5 consecutive dilutions in 1×PBS with 2% Bovine serum Albumin). For dual binding ELISA assay, plates were incubated for 1 hr with biotinylated human CD40 (Acrobiosystems). After washing, plates were incubated for 1 hr with horseradish peroxidase-conjugated anti-human IgG (Jackson ImmunoResearch) or with horseradish peroxidase-conjugated Streptavidin (Biolegend). Detection was performed using a one component substrate solution (TMB) and reactions stopped with the addition of 0.18 M sulphuric acid. Absorbance at 450 nm was immediately recorded using a SpectraMax Plus spectrophotometer (Molecular Devices), and background absorbance from negative control samples was subtracted.
For orientation: ELISA stands for enzyme-linked immunosorbent assay.

Experiment [2] concerns the target T2, recombinant mouse CD11c (R&D Systems) (mouse, UniProt Q9QXH4 20-1116).
T2 construct: extracellular domain; Bought protein; also called recombinant CD11c
T2 sequence (looked up): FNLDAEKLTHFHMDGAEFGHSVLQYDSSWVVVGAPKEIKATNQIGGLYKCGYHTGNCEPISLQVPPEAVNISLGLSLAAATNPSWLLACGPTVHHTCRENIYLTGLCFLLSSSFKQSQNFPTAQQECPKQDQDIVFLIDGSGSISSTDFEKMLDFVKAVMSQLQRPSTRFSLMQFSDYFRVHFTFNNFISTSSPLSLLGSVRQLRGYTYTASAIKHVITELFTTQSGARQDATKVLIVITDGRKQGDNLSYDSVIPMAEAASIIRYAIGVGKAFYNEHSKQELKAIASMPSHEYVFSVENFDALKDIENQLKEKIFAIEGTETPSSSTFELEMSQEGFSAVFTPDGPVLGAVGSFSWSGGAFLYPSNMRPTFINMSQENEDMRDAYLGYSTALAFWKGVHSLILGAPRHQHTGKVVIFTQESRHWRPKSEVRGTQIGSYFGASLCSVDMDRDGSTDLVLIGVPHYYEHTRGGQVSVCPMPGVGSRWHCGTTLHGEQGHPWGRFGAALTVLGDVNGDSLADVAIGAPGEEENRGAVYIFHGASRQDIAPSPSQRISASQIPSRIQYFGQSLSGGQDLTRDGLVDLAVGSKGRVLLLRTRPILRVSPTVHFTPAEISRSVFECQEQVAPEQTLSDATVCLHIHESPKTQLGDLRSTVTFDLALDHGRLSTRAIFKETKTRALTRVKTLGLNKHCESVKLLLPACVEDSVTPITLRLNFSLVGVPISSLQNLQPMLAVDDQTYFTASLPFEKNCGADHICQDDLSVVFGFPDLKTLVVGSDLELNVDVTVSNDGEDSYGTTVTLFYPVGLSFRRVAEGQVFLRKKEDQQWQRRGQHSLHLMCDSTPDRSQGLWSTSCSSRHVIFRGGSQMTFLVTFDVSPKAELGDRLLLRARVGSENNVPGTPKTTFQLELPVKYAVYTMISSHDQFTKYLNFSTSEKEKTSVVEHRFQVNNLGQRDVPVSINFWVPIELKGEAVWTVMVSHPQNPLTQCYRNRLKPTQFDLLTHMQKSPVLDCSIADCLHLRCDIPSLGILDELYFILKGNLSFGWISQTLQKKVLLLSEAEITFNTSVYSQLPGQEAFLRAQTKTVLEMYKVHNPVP
Nature of the experiment: ELISA titration on coated recombinant mouse CD11c (FIG. 4B). As to the method: as §1

Experiment [3] addresses T3, biotinylated human CD40 (Acrobiosystems) (human, UniProt P25942 21-193, biotinylated (site not stated)).
T3 construct: also called huCD40
Kind of experiment: simultaneous binding ELISA (FIG. 4A-D). As to the method:
as §1

Experiment [4] has as its target T1, recombinant human DEC-205 (Sino …). Nature of the experiment: simultaneous binding ELISA (FIG. 4A-D). How it is done:
as §1

Experiment [5] deals with T4, recombinant human CD40 (Sino Biological), extracellular domain (human, UniProt P25942 21-193).
T4 construct: also called huCD40; hCD40
Nature of the experiment: ELISA titration on coated recombinant huCD40 (FIG. 4A). As to the method: as §1

The target of a further experiment is T5, recombinant hFcγRIIB (human, UniProt P31994 43-217, limits assumed).
T5 construct: construct not described; also called human FcγRIIB
T5 sequence (looked up): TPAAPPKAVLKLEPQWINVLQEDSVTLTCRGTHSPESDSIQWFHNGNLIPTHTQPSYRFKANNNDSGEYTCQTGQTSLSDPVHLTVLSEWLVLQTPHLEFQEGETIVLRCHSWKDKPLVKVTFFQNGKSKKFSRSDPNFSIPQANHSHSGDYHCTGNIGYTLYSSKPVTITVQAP
Nature of the experiment: ELISA on recombinant hFcγRIIB (FIG. 9B).

T1 sequence (O60449 28-1666): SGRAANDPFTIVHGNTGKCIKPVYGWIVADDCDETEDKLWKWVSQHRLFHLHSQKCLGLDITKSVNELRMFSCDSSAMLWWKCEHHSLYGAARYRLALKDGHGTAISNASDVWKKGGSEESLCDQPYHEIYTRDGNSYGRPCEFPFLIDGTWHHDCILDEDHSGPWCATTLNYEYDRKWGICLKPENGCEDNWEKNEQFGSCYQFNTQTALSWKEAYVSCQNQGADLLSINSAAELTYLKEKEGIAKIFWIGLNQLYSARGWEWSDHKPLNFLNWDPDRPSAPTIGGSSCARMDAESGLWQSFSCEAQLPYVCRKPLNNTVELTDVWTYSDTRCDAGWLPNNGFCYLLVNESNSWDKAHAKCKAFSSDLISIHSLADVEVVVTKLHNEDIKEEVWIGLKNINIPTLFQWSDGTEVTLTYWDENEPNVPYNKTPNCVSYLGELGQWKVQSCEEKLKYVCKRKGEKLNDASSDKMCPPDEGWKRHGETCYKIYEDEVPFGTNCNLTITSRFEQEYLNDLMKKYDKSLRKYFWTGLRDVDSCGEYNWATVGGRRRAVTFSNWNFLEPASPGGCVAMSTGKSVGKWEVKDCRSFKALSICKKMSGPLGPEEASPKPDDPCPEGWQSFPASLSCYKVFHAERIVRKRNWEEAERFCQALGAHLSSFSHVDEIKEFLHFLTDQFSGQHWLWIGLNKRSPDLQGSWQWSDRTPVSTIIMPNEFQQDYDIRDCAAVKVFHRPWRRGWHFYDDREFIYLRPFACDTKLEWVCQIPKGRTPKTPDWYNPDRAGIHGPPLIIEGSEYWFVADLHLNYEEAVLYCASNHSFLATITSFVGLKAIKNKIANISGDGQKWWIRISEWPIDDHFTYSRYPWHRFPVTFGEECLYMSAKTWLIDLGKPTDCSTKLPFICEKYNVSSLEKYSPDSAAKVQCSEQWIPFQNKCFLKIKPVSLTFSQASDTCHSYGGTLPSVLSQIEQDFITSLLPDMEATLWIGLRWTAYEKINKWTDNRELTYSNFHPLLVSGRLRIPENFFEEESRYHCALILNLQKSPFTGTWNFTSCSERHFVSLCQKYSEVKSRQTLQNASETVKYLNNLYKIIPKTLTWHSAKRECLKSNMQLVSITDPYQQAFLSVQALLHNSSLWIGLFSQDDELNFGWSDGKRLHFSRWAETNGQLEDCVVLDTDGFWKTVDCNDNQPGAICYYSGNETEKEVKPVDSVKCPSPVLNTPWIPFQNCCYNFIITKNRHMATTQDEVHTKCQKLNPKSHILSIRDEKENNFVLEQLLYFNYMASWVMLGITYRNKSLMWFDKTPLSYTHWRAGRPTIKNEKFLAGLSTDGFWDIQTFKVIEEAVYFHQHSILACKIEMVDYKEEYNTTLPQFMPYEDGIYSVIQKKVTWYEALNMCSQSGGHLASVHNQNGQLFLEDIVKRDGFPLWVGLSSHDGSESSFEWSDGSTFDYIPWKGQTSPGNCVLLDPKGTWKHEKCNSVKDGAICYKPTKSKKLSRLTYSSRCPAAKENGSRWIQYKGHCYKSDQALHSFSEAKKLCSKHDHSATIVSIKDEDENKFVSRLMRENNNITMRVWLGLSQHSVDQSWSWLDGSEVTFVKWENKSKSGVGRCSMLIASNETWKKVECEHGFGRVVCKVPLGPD
T3 sequence (P25942 21-193 limits assumed): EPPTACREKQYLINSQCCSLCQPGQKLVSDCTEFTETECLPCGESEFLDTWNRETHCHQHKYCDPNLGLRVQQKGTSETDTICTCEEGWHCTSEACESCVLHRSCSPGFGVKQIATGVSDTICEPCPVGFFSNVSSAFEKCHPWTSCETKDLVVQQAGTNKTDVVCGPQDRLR
T4 sequence (P25942 21-193 limits assumed): as above

B1: anti-CD40 (2141) monospecific Ab (antibody, V domains shown)
VH: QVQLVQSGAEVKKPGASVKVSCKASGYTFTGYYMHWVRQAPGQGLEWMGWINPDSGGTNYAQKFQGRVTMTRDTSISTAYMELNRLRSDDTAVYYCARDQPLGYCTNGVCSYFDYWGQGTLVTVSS
VL: DIQMTQSPSSVSASVGDRVTITCRASQGIYSWLAWYQQKPGKAPNLLIYTASTLQSGVPSRFSGSGSGTDFTLTISSLQPEDFATYYCQQANIFPLTFGGGTKVEIKR
notes: 2141 variable regions cloned on human IgG1 / human kappa backbones; also called clone 21.4.1; CD40 mAb
For B1, the binding result in experiment [1] and in experiment [2] was “no binding” each time.

B2: anti-CD40/DEC-205 bispecific Ab (2141/HD-109) (bispecific antibody)
VH 1: not shown
VL 1: DIQMTQSPSSVSASVGDRVTITCRASQGIYSWLAWYQQKPGKAPNLLIYTASTLQSGVPSRFSGSGSGTDFTLTISSLQPEDFATYYCQQANIFPLTFGGGTKVEIKRTVAAPSVFIFPPSDEQLKSGTASVVCLLNNFYPREAKVQWKVDNALQSGNSQESVTEQDSKDSTYSLSSTLTLSKADYEKHKVYACEVTHQGLSSPVTKSFNRGEC
VH 2: QVQLTESGPGLVAPSQSLSITCSVSGFSLTNYAINWVRQPPGKGLEWLGIIWTGGGTNYNSTLKSRLSISKDNSKSQVFLKMNSLQTDDTARYYCARVSHDYFYGSSPYYYGMDYWGQGTSVTVSS
VL 2: DIQMNQSPSSLSASLGDTITITCHASQNINVWLSWYQQKPGNIPKLLIYKVSNLHTGVPSRFSGSGSGTGFTLTISSLQPEDIATYYCQQGQSYPWTFGGGTKLEIK
notes: Whole human IgG1 bispecific of four chains; Knobs-into-holes: Y349C/T366S/L368A/Y407V on the anti-DC arm and S354C/T366W on the anti-CD40 arm; One arm is in CrossMab CH1-CL format
In the case of B2, the binding result in experiment [3], in experiment [4] and in experiment [5] was “binds” throughout.

B3: CD40/DEC-205-V11 (bispecific antibody, human IgG1)
heavy 1: not shown
light 1: B2 VL 1
heavy 2: QVQLTESGPGLVAPSQSLSITCSVSGFSLTNYAINWVRQPPGKGLEWLGIIWTGGGTNYNSTLKSRLSISKDNSKSQVFLKMNSLQTDDTARYYCARVSHDYFYGSSPYYYGMDYWGQGTSVTVSSASVAAPSVFIFPPSDEQLKSGTASVVCLLNNFYPREAKVQWKVDNALQSGNSQESVTEQDSKDSTYSLSSTLTLSKADYEKHKVYACEVTHQGLSSPVTKSFNRGECDRSEPKSCDKTHTCPPCPAPELLGDDSVFLFPPKPKDTLMISRTPEVTCVVVDVSDEDGEVKFNWYVDGVEVHNAKTKPREEQYNSTYRVVSVLTVLHQDWLNGKEYKCKVSNKALPRPIEKTISKAKGQPREPQVCTLPPSREEMTKNQVSLSCAVKGFYPSDIAVEWESNGQPENNYKTTPPVLDSDGSFFLVSKLTVDKSRWQQGNVFSCSVMHEALHNHYTQKSLSLSPGKSAWSHPQFEK
light 2: DIQMNQSPSSLSASLGDTITITCHASQNINVWLSWYQQKPGNIPKLLIYKVSNLHTGVPSRFSGSGSGTGFTLTISSLQPEDIATYYCQQGQSYPWTFGGGTKLEIKSSASTKGPSVFPLAPSSKSTSGGTAALGCLVKDYFPEPVTVSWNSGALTSGVHTFPAVLQSSGLYSLSSVVTVPSSSLGTQTYICNVNHKPSNTKVDKKVEPKSC
notes: Human IgG1 Fc with V11 (G237D/P238D/H268D/P271G/A330R); also called IgG1-V11; copies: 1 + 1 + 1 + 1
As to B3, the binding result with recombinant hFcγRIIB is listed as “binds”.

B4: anti-DEC-205 (HD109) monospecific Ab (antibody, V domains shown)
VH: B2 VH 2
VL: B2 VL 2
B4: the binding result in experiment [1] is given as “binds”.

B5: CD40/CD11c-V11 (bispecific antibody, human IgG1)
heavy 1: not shown
light 1: B2 VL 1
heavy 2: EVQLVEKGGGLVQPGKSLKLSCAASGFTFSEYWMNWVRQAPGKGLEWVGVIKYKYSNYATEYAESVKGRFTISRDDSKSSVYLQMNNLRAEDTAIYYCARTWENWYFDFWGQGTQVTVSSASVAAPSVFIFPPSDEQLKSGTASVVCLLNNFYPREAKVQWKVDNALQSGNSQESVTEQDSKDSTYSLSSTLTLSKADYEKHKVYACEVTHQGLSSPVTKSFNRGECDRSEPKSCDKTHTCPPCPAPELLGDDSVFLFPPKPKDTLMISRTPEVTCVVVDVSDEDGEVKFNWYVDGVEVHNAKTKPREEQYNSTYRVVSVLTVLHQDWLNGKEYKCKVSNKALPRPIEKTISKAKGQPREPQVCTLPPSREEMTKNQVSLSCAVKGFYPSDIAVEWESNGQPENNYKTTPPVLDSDGSFFLVSKLTVDKSRWQQGNVFSCSVMHEALHNHYTQKSLSLSPGKSAWSHPQFEK
light 2: DIQMTQSPSSLPASLGDRVTIHCQASQDISNYLTWYQQKPGKAPKLLIYETNKLADGVPSRFSGSGSGRDYSFTISSLESEDVGSYYCQHYYDYPRTFGPGTKLDLKSSASTKGPSVFPLAPSSKSTSGGTAALGCLVKDYFPEPVTVSWNSGALTSGVHTFPAVLQSSGLYSLSSVVTVPSSSLGTQTYICNVNHKPSNTKVDKKVEPKSC
notes: Human IgG1 Fc with V11 (G237D/P238D/H268D/P271G/A330R); also called anti-CD40/CD11c bsAb hIgG1-V11; IgG1-V11; copies: 1 + 1 + 1 + 1
Regarding B5, in the experiment with recombinant hFcγRIIB, the binding result is recorded as “binds”.
